Consider 1 molecule from PMC11879458.

Common to all, as to assay: EMSA
A general note: In EMSA bound probe runs differently from free probe, usually more slowly.

One data set has as its target ADR-2 (Caenorhabditis elegans, UniProt Q22618 1-495).
Data set [1] addresses ADR-2 (ΔdsRBD);ADBP-1 (Δ1-66 aa) (Caenorhabditis elegans;Caenorhabditis …, UniProt Q22618;G5EDW1 1-35+106-495;67-217, internal_change|del1-66).
The target of another data set is ADR-2;ADBP-1 (Caenorhabditis elegans;Caenorhabditis …, UniProt Q22618;G5EDW1 1-495;1-217, |).

B1: FAM-dsRNA 21 bp (dsRNA)
RNA 1: AAGGAUUACUGUAGUUUUCGC
RNA 2: GCGAAAACUACAGUAAUCCUU
For B1, the binding result with ADR-2 is recorded as “binds”; in data set [1], “no binding”; with ADR-2;ADBP-1, “binds”.
